Laboratory results as given in paper PMC10794148.
Several values for one entry are separate records, joined by “and”; a condition that tells them apart may be missing. Equal values may be shown once. Each block holds one substance with its values, some of them ahead of it.

Assays:
[1] = target: 147 bp nucleosome reconstituted with H2B(K125C)-biotin (human) (UniProt P04908); test: AlphaScreen or HTRF; TR-FRET competition: 15 nM 6×His-Sumo-mcGAS, 2 nM biotin NCP, 4 nM Eu-W1024 streptavidin, 10 nM ULight-anti-6×His; 0–2,000 nM untagged MRN or 0–5,000 nM unlabelled nucleosome; 10 mM Tris-HCl pH 7.5, 50 mM NaCl, 5% glycerol, 0.01% NP-40, 0.01% CHAPS, 5 mM DTT, 100 µg/ml BSA; 1 h at room temperature
[2] = target: 6×His-Sumo tagged mouse cGAS catalytic domain (UniProt Q8C6L5); test: TR-FRET competition assay; details: unlabelled competitor at the highest titrated concentration, est. ~5,000 nM; signal is residual cGAS-biotin-NCP TR-FRET (lower = more competition); parent: est. 0.16; read off a plot
[3] = target: human nucleosome core particle, wild type, unlabelled (human) (UniProt P04908); test: native gel or EMSA; 50 or 100 nM 147-bp hNCP with 200 or 50 nM mcGAS-CR and 0–1.2 µM MRN; 20 mM HEPES pH 7.5, 50 mM NaCl, 5% sucrose, 1 mM DTT; on ice; gel scanned for mcGAS-CR fluorescence, then ethidium bromide

percent reduction of the cGAS–NCP TR-FRET signal at plateau [1]: 50%
Substance: untagged MRN complex (mixture of 2 unlabelled MR:1 NBS1–Flag) (from UniProt P49959 1-708; Q92878 1-1312; O60934 1-754)

response (normalized fluorescence) [2]: 0.63
Substance: human nucleosome core particle, wild type, unlabelled (from UniProt P04908;P62807;Q71DI3;P62805) H2A:E61A; H2A:E64S; H2A:N68A; H2A:D72S; H2A:N89A; H2A:D90A; H2A:E91S

stoichiometry N [3]: 1 cGAS per NCP and 2 cGAS per NCP
Substance: carboxyrhodamine-labelled mouse cGAS catalytic domain (from UniProt Q8C6L5 141-507) (domain or fragment)
